B1: LINE1-mini (parent)
chain: GGCAGAGCUCAACACAGCGUGGCAAAGUGGCUGUGGCUAGACUGCC

Variants of: B1
Assay: self-cleavage, relative activity (ratio to wild type); higher = more cleavage; in vitro, sequencing; the parent is a self-cleaving ribozyme

In order of falling self-cleavage:
1. G2A C23U  2.33
2. G2A C3A  1.93
3. G2A A26U  1.83
4. G2A G19A  1.72
5. G2A A24C  1.16
6. G2A C45A  1.08
7. G2A A24G  1.04
8. G2A C23A  1.04
9. G2A A6U  1
10. G2A  0.92
11. G2A G29U  0.9
12. G2A C3U  0.9
13. G2A A26C  0.9
14. G2A G22U  0.89
15. G2A U20A  0.88
16. G2A A24U  0.86
17. G2A A14G  0.81
18. G2A G22A  0.8
19. G2A C3G  0.76
20. G2A A39U  0.76
21. G2A C45G  0.75
22. G2A G19U  0.72
23. G2A U38A  0.71
24. G2A U38C  0.7
25. G2A A25U  0.65
26. G2A G29C  0.65
27. G2A U28C  0.64
28. G2A A25C  0.62
29. G2A G29A  0.61
30. G2C C45G  0.61
31. G2A A26G  0.6
32. G2A A39C  0.54
33. G2A G5A  0.53
34. G2C G21A  0.51
35. G2A C15U  0.5
36. G2A U20C  0.48
37. G2A C13G  0.45
38. G2A A12U  0.41
39. G2A G35U  0.41
40. G2A C23G  0.4
41. G2A A14U  0.37
42. G2A U20G  0.36
43. G2A C13A  0.36
44. G2A G40A  0.35
45. G2A G35C  0.34
46. G2A A6C  0.33
47. G2A G17C  0.32
48. G2A C13U  0.32
49. G2A U28A  0.32
50. G2A U9A  0.31
51. G2A C15A  0.31
52. G2A G22C  0.29
53. G2A G40U  0.29
54. G2C G7U  0.28
55. G2A G5U  0.27
56. G2A G35A  0.26
57. G2C G21C  0.25
58. G2C G36A  0.25
59. G2A U9G  0.25
60. G2C C45A  0.25
61. G1U U28C  0.24
62. G2A A25G  0.23
63. G2C G35U  0.23
64. G2C G22U  0.23
65. G2A A39G  0.22
66. G2A G17A  0.2
67. G2A G33A  0.2
68. G1U U28G  0.2
69. G1U U38C  0.2
70. G2A G17U  0.19
71. G2A G19C  0.19
72. G2C C45U  0.19
73. G2A U34C  0.19
74. G2A U34A  0.18
75. G2C G19A  0.17
76. G2U A6U  0.16
77. G2U C23A  0.16
78. G2C C46G  0.16
79. G2C G19C  0.16
80. G2C G22A  0.15
81. G2A A14C  0.15
82. G1U U28A  0.15
83. G2C A6U  0.14
84. G2A A12G  0.14
85. G2C G27U  0.14
86. G2C G7C  0.14
87. G2C  0.13
88. G2C G27A  0.13
89. G2A G33U  0.13
90. G2A U34G  0.13
91. G2A A6G  0.13
92. G1U U38A  0.13
93. G2C G21U  0.12
94. G2C A12U  0.12
95. G2C A6C  0.12
96. G2C G27C  0.12
97. G2A G40C  0.12
98. G2U A4G  0.12
99. G2C U34G  0.12
100. G2C C15U  0.11
101. G2C G19U  0.11
102. G2C G36U  0.1
103. G2U C8U  0.1
104. G2C C46A  0.09
105. G2U  0.09
106. G2A U9C  0.08
107. G2C A14U  0.08
108. G2U A14G  0.08
109. G2U A4U  0.08
110. G2C C31U  0.08
111. G2U A25U  0.08
112. G2C A12G  0.07
113. G2C A6G  0.07
114. G2C C46U  0.07
115. G2U A4C  0.07
116. G2U C8A  0.07
117. G2C U34A  0.07
118. G2C C31A  0.07
119. G2C C15A  0.06
120. G2C G35A  0.06
121. G1U U34G  0.06
122. G1U U34C  0.06
123. G2A A12C  0.06
124. G2A G5C  0.06
125. G2C A14C  0.06
126. G2C U34C  0.06
127. G2C C31G  0.06
128. G2C G7A  0.06
129. G2C G5A  0.05
130. G2C G33U  0.05
131. G2A U38G  0.05
132. G2C G35C  0.05
133. G1U U34A  0.05
134. G2U C15U  0.05
135. G2A G33C  0.05
136. G2C G22C  0.05
137. G2A C15G  0.05
138. G2U A25C  0.05
139. G2U A6C  0.04
140. G2C G33A  0.04
141. G2C G36C  0.04
142. G2U A39G  0.04
143. G2U A39U  0.04
144. G2U C15A  0.04
145. G2U A14U  0.04
146. G2U C8G  0.04
147. G2U A12U  0.04
148. G2U A6G  0.03
149. G2C G5U  0.03
150. G2U A39C  0.03
151. G2U A11U  0.03
152. G2C A14G  0.03
153. G2C C10G  0.03
154. G2C C10U  0.03
155. G2C C10A  0.03
156. G1U U38G  0.03
157. G2U A25G  0.03
158. G2C C15G  0.02
159. G2C G5C  0.02
160. G2C A12C  0.02
161. G2C G33C  0.02
162. G2U C15G  0.02
163. G2U A11G  0.02
164. G2U A12G  0.02
165. G2U A12C  0.02
166. G2U A11C  0.01
167. G2U A14C  0.01

Source: the RNAGym collection of RNA variant scans (doi:10.7554/elife.90254)
